Measured values published in US20200317779A1 (GREEN CROSS, published 2020).
Substitutions are numbered along the chain they refer to.

Columns and labels:
[1] = target: T1, CD3 on human T cells (H9 cells, ATCC HTB-176) (human); experiment: flow cytometry on H9 cells, 1 µg antibody per 2x10^5 cells in 100 µl, PE anti-human IgG detection
T1 construct: whole, on cells; The target is printed as 'human T cells'
Procedure: (§1) The resultant was stored for 25 minutes in the dark at 4° C. Subsequently, treatment with 3 ml of FACS buffer was performed, and centrifugation was performed at 2,000 rpm for 3 minutes. Then, the supernatant was discarded.
as §1, with “Next, 100 μl FACS buffer containing 1 μg of phycoerythrin (PE)-conjugated human IgG antibody was used to treat the cells, and the resultant” for “The resultant”
(§2) The cells were treated with a 4% formaldehyde solution, stored in the dark at 4° C. for 30 minutes, and then treated with 3 ml of FACS buffer. Centrifugation was performed at 2,000 rpm for 3 minutes, and then the supernatant was discarded. Treatment with 350 μl of FACS buffer was performed, and a flow cytometer was used to perform affinity analysis of the antibodies for the human T cells. The analysis results are illustrated in FIG. 1.

[2] = target: T2, CD3 on monkey T cells (monkey splenocytes) (monkey); experiment: flow cytometry on monkey splenocytes, 1 µg antibody per 10^6 cells in 100 µl, PE anti-human IgG detection
T2 construct: whole, on cells; The target is printed as 'monkey T cells'
Procedure: as §1, with “Specifically, monkey splenocytes were prepared at 10⁶ cells in 100 μl FACS solution per antibody sample, and then 1 μg of antibody was used to treat the cells. The resultant” for “The resultant”
as §1, with “Next, 100 μl FACS buffer containing 1 μg of PE-conjugated human IgG antibody was used to treat the cells, and the resultant” for “The resultant”
as §2, with “2.” for “1.”

T1 sequence (P07766 23-207, chain 1 of 3): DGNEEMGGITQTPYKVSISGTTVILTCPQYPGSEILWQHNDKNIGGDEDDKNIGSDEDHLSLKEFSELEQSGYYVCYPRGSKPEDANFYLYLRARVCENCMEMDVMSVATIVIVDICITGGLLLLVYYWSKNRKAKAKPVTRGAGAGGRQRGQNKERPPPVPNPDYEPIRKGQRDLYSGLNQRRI
T1 sequence (P04234 22-171, chain 2 of 3, further chain): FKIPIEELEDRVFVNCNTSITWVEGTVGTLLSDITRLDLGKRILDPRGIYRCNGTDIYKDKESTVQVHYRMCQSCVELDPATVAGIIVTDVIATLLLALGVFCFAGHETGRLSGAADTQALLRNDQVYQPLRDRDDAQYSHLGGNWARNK
T1 sequence (P09693 23-182, chain 3 of 3, further chain): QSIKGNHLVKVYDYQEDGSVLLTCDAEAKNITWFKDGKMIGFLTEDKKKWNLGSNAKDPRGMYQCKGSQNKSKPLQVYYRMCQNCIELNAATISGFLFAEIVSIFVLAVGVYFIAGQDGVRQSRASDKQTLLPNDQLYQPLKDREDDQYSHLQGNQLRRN

B1: H16 (antibody, human IgG1, lambda, L234A L235A, V domains shown)
VH: EVQLVESGGGLVQPGGSLKLSCAASGFTFNTYAMNWVRQASGKGLEWVARIRSKYNNYATYYADSVKDRFTISRDDSQSTLYLQMNSLKTEDTAVYYCVRHGNFGNSYVSWFAYWGQGTLVTVSS
VL: QAVVTQEPSLTVSPGGTVTLTCRSSTGAVTTSNYANWVQQKPGQAPRGLIGGTNKRAPWTPARFSGSLLGDKAALTLSGAQPEDEAEYYCALWYSNLWVFGGGTKLTVLG
notes: humanized SP34 IgG1, lambda
Mean : PE-A [1]: 9350
Mean : Comp-PE-A [2]: 13400

B2: G15 (antibody, human IgG1, lambda, L234A L235A, V domains shown)
VH: B1 VH with L81A
VL: B1 VL with D71G
notes: humanized SP34 IgG1, lambda
Mean : PE-A [1]: 11600
Mean : Comp-PE-A [2]: 17300

B3: F15 (antibody, human IgG1, lambda, L234A L235A, V domains shown)
VH: B1 VH with Q78K, S79N
VL: B1 VL with D71G
notes: humanized SP34 IgG1, lambda
Mean : PE-A [1]: 11200
Mean : Comp-PE-A [2]: 14700

B4: E15 (antibody, human IgG1, lambda, L234A L235A, V domains shown)
VH: B1 VH with Q78K, S79N, L81A
VL: B1 VL with D71G
notes: humanized SP34 IgG1, lambda
Mean : PE-A [1]: 12800
Mean : Comp-PE-A [2]: 13500

B5: D15 (antibody, human IgG1, lambda, L234A L235A, V domains shown)
VH: B1 VH with A49G
VL: B1 VL with D71G
notes: humanized SP34 IgG1, lambda
Mean : PE-A [1]: 22600
Mean : Comp-PE-A [2]: 18600

B6: C15 (antibody, human IgG1, lambda, L234A L235A, V domains shown)
VH: B1 VH with A49G, L81A
VL: B1 VL with D71G
notes: humanized SP34 IgG1, lambda
Mean : PE-A [1]: 23100
Mean : Comp-PE-A [2]: 17800

B7: B15 (antibody, human IgG1, lambda, L234A L235A, V domains shown)
VH: B1 VH with A49G, Q78K, S79N
VL: B1 VL with D71G
notes: humanized SP34 IgG1, lambda
Mean : PE-A [1]: 22900
Mean : Comp-PE-A [2]: 16300

B8: A15 (antibody, human IgG1, lambda, L234A L235A, V domains shown)
VH: B1 VH with A49G, Q78K, S79N, L81A
VL: B1 VL with D71G
notes: humanized SP34 IgG1, lambda
Mean : PE-A [1]: 24000
Mean : Comp-PE-A [2]: 15800

B9: D08 (antibody, human IgG1, lambda, L234A L235A, V domains shown)
VH: B1 VH with A49G
VL: B1 VL with V38F
notes: humanized SP34 IgG1, lambda; also called D8
Mean : PE-A [1]: 4220
Mean : Comp-PE-A [2]: 5120

B10: C08 (antibody, human IgG1, lambda, L234A L235A, V domains shown)
VH: B1 VH with A49G, L81A
VL: B1 VL with V38F
notes: humanized SP34 IgG1, lambda; also called C8
Mean : PE-A [1]: 4680
Mean : Comp-PE-A [2]: 5670

B11: B08 (antibody, human IgG1, lambda, L234A L235A, V domains shown)
VH: B1 VH with A49G, Q78K, S79N
VL: B1 VL with V38F
notes: humanized SP34 IgG1, lambda; also called B8
Mean : PE-A [1]: 3780
Mean : Comp-PE-A [2]: 4590

B12: G16 (antibody, human IgG1, lambda, L234A L235A, V domains shown)
VH: B1 VH with L81A
VL: B1 VL
notes: humanized SP34 IgG1, lambda
Mean : PE-A [1]: 10300
Mean : Comp-PE-A [2]: 14000

B13: A08 (antibody, human IgG1, lambda, L234A L235A, V domains shown)
VH: B1 VH with A49G, Q78K, S79N, L81A
VL: B1 VL with V38F
notes: humanized SP34 IgG1, lambda; also called A8
Mean : PE-A [1]: 3080
Mean : Comp-PE-A [2]: 5530

B14: D07 (antibody, human IgG1, lambda, L234A L235A, V domains shown)
VH: B1 VH with A49G
VL: B1 VL with V38F, D71G
notes: humanized SP34 IgG1, lambda; also called D7
Mean : PE-A [1]: 3770
Mean : Comp-PE-A [2]: 6760

B15: C07 (antibody, human IgG1, lambda, L234A L235A, V domains shown)
VH: B1 VH with A49G, L81A
VL: B1 VL with V38F, D71G
notes: humanized SP34 IgG1, lambda; also called C7
Mean : PE-A [1]: 4620
Mean : Comp-PE-A [2]: 5380

B16: B07 (antibody, human IgG1, lambda, L234A L235A, V domains shown)
VH: B1 VH with A49G, Q78K, S79N
VL: B1 VL with V38F, D71G
notes: humanized SP34 IgG1, lambda; also called B7
Mean : PE-A [1]: 4810
Mean : Comp-PE-A [2]: 4790

B17: A07 (antibody, human IgG1, lambda, L234A L235A, V domains shown)
VH: B1 VH with A49G, Q78K, S79N, L81A
VL: B1 VL with V38F, D71G
notes: humanized SP34 IgG1, lambda; also called A7
Mean : PE-A [1]: 4310
Mean : Comp-PE-A [2]: 6680

B18: F16 (antibody, human IgG1, lambda, L234A L235A, V domains shown)
VH: B1 VH with Q78K, S79N
VL: B1 VL
notes: humanized SP34 IgG1, lambda
Mean : PE-A [1]: 9530
Mean : Comp-PE-A [2]: 11900

B19: E16 (antibody, human IgG1, lambda, L234A L235A, V domains shown)
VH: B1 VH with Q78K, S79N, L81A
VL: B1 VL
notes: humanized SP34 IgG1, lambda
Mean : PE-A [1]: 11100
Mean : Comp-PE-A [2]: 13900

B20: D16 (antibody, human IgG1, lambda, L234A L235A, V domains shown)
VH: B1 VH with A49G
VL: B1 VL
notes: humanized SP34 IgG1, lambda
Mean : PE-A [1]: 18300
Mean : Comp-PE-A [2]: 18600

B21: C16 (antibody, human IgG1, lambda, L234A L235A, V domains shown)
VH: B1 VH with A49G, L81A
VL: B1 VL
notes: humanized SP34 IgG1, lambda
Mean : PE-A [1]: 17700
Mean : Comp-PE-A [2]: 12100

B22: B16 (antibody, human IgG1, lambda, L234A L235A, V domains shown)
VH: B1 VH with A49G, Q78K, S79N
VL: B1 VL
notes: humanized SP34 IgG1, lambda
Mean : PE-A [1]: 16800
Mean : Comp-PE-A [2]: 17200

B23: A16 (antibody, human IgG1, lambda, L234A L235A, V domains shown)
VH: B1 VH with A49G, Q78K, S79N, L81A
VL: B1 VL
notes: humanized SP34 IgG1, lambda
Mean : PE-A [1]: 16700
Mean : Comp-PE-A [2]: 17600

B24: H15 (antibody, human IgG1, lambda, L234A L235A, V domains shown)
VH: B1 VH
VL: B1 VL with D71G
notes: humanized SP34 IgG1, lambda
Mean : PE-A [1]: 9620
Mean : Comp-PE-A [2]: 16700

B25: Mouse human chimeric SP34 IgG1 antibody (antibody, V domains shown)
VH: B1 VH with G15K, S41P, T80I, S87N, V95M
VL: QAVVTQESALTTSPGETVTLTCRSSTGAVTTSNYANWVQEKPDHLFTGLIGGTNKRAPGVPARFSGSLIGDKAALTITGAQTEDEAIYFCALWYSNLWVFGGGTKLTVLG
Mean : Comp-PE-A [2]: 19800
